# Source: patent US20240400708A1
# Positions count from the first letter of the chain named. Names and notes keep the numbering of the source.
# B1: feline IgG1a mutant ID No. 372: S252Y, S434R, Q311M (antibody, part only; not given: Variable domains, not shown: another chain or arm of the molecule)
# constant: ASTTAPSVFPLAPSCGTTSGATVALACLVLGYFPEPVTVSWNSGALTSGVHTFPAVLQASGLYSLSSMVTVPSSRWLSDTFTCNVAHPPSNTKVDKTVRKTDHPPGPKPCDCPKCPPPEMLGGPSIFIFPPKPKDTLYISRTPEVTCLVVDLGPDDSDVQITWFVDNTQVYTAKTSPREEQFNSTYRVVSVLPILHMDWLKGKEFKCKVNSKSLPSPIERTISKAKGQPHEPQVYVLPPAQEELSRNKVSVTCLIKSFHPPDIAVEWEITGQPEPENNYRTTPPQLDSDGTYFVYSKLSVDRSHWQRGNTYTCSVSHEALHRHHTQKSLTQSPGK
# B2: feline IgG1a mutant ID No. 373: S252Y, S434R, Q311R (antibody, part only; not given: Variable domains, not shown: another chain or arm of the molecule)
# constant: B1 constant with M197R
# B3: feline IgG1a mutant ID No. 375: S252Y, S434R, S254V (antibody, part only; not given: Variable domains, not shown: another chain or arm of the molecule)
# constant: B1 constant with S140V, M197Q
# B4: feline IgG1a mutant ID No. 378: S252Y, S434R, T403R (antibody, part only; not given: Variable domains, not shown: another chain or arm of the molecule)
# constant: B1 constant with M197Q, T291R
# B5: feline IgG1a mutant ID No. 377: S252Y, S434R, T256M (antibody, part only; not given: Variable domains, not shown: another chain or arm of the molecule)
# constant: B1 constant with T142M, M197Q
# B6: feline IgG1a mutant ID No. 374: S252Y, S434R, Q311Y (antibody, part only; not given: Variable domains, not shown: another chain or arm of the molecule)
# constant: B1 constant with M197Y
# B7: feline IgG1a mutant ID No. 376: S252Y, S434R, T250Q (antibody, part only; not given: Variable domains, not shown: another chain or arm of the molecule)
# constant: B1 constant with T136Q, M197Q
# B8: feline IgG1a Fc mutant S428L, S434H (antibody, part only; not given: Variable domains, not shown: another chain or arm of the molecule; small tags and cut ends)
# constant: B1 constant with Y138S, M197Q, S316L, R322H
# B9: feline IgG1a Fc mutant S428M, S434F (antibody, part only; not given: variable domains and light chain, not shown: another chain or arm of the molecule; small tags and cut ends)
# constant: B1 constant with Y138S, M197Q, S316M, R322F
# B10: feline IgG1a Fc mutant S428L, S434Y (antibody, part only; not given: Variable domains, not shown: another chain or arm of the molecule; small tags and cut ends)
# constant: B1 constant with Y138S, M197Q, S316L, R322Y
# B11: feline IgG1a Fc mutant S428M, S252Y (antibody, part only; not given: Variable domains, not shown: another chain or arm of the molecule; small tags and cut ends)
# constant: B1 constant with M197Q, S316M, R322S
# B12: feline IgG1a Fc mutant S428M, S434W (antibody, part only; not given: Variable domains, not shown: another chain or arm of the molecule; small tags and cut ends)
# constant: B1 constant with Y138S, M197Q, S316M, R322W
# B13: feline IgG1a Fc mutant S428M, S434Y (antibody, part only; not given: Variable domains, not shown: another chain or arm of the molecule; small tags and cut ends)
# constant: B1 constant with Y138S, M197Q, S316M, R322Y
# B14: feline IgG1a Fc mutant S428L, S434W (antibody, part only; not given: Variable domains, not shown: another chain or arm of the molecule; small tags and cut ends)
# constant: B1 constant with Y138S, M197Q, S316L, R322W
# B15: feline IgG1a Fc mutant S428L, S434F (antibody, part only; not given: Variable domains, not shown: another chain or arm of the molecule; small tags and cut ends)
# constant: B1 constant with Y138S, M197Q, S316L, R322F
# B16: feline IgG1a Fc mutant S428Y, S434R (antibody, part only; not given: Variable domains, not shown: another chain or arm of the molecule; small tags and cut ends)
# constant: B1 constant with Y138S, M197Q, S316Y
# B17: feline IgG1a Fc mutant S428Y, S252H (antibody, part only; not given: Variable domains, not shown: another chain or arm of the molecule; small tags and cut ends)
# constant: B1 constant with Y138H, M197Q, S316Y, R322S
# B18: feline IgG1a Fc mutant Q311W, S428M (antibody, part only; not given: Variable domains, not shown: another chain or arm of the molecule; small tags and cut ends)
# constant: B1 constant with Y138S, M197W, S316M, R322S
# B19: feline IgG1a Fc mutant Q311M, S428Y (antibody, part only; not given: variable domains, not shown: another chain or arm of the molecule; small tags and cut ends)
# constant: B1 constant with Y138S, S316Y, R322S
# B20: feline IgG1a Fc mutant Q311H, S428L (antibody, part only; not given: Variable domains, not shown: another chain or arm of the molecule; small tags and cut ends)
# constant: B1 constant with Y138S, M197H, S316L, R322S
# B21: feline IgG1a Fc mutant Q311R, S428Y (antibody, part only; not given: Variable domains, not shown: another chain or arm of the molecule; small tags and cut ends)
# constant: B1 constant with Y138S, M197R, S316Y, R322S
# B22: feline IgG1a Fc mutant S428M, S252W (antibody, part only; not given: variable domains and light chain, not shown: another chain or arm of the molecule; small tags and cut ends)
# constant: B1 constant with Y138W, M197Q, S316M, R322S
# B23: feline IgG1a Fc mutant Q311K, S428M (antibody, part only; not given: Variable domains, not shown: another chain or arm of the molecule; small tags and cut ends)
# constant: B1 constant with Y138S, M197K, S316M, R322S
# B24: feline IgG1a Fc mutant Q311Y, S428Y (antibody, part only; not given: Variable domains, not shown: another chain or arm of the molecule)
# constant: B1 constant with Y138S, M197Y, S316Y, R322S
# B25: feline IgG1a Fc mutant Q311H, S428M (antibody, part only; not given: Variable domains, not shown: another chain or arm of the molecule; small tags and cut ends)
# constant: B1 constant with Y138S, M197H, S316M, R322S
# B26: feline IgG1a Fc mutant Q311L, S428M (antibody, part only; not given: Variable domains, not shown: another chain or arm of the molecule; small tags and cut ends)
# constant: B1 constant with Y138S, M197L, S316M, R322S
# B27: feline IgG1a Fc mutant S428Y, S252W (antibody, part only; not given: Variable domains, not shown: another chain or arm of the molecule)
# constant: B1 constant with Y138W, M197Q, S316Y, R322S
# B28: feline IgG1a Fc mutant Q311R, S428L (antibody, part only; not given: Variable domains, not shown: another chain or arm of the molecule; small tags and cut ends)
# constant: B1 constant with Y138S, M197R, S316L, R322S
# B29: feline IgG1a Fc mutant S428L, S252F (antibody, part only; not given: Variable domains, not shown: another chain or arm of the molecule; small tags and cut ends)
# constant: B1 constant with Y138F, M197Q, S316L, R322S
# B30: feline IgG1a Fc mutant S428L, S252Y (antibody, part only; not given: Variable domains, not shown: another chain or arm of the molecule)
# constant: B1 constant with M197Q, S316L, R322S
# B31: feline IgG1a Fc mutant S428L, S434R (antibody, part only; not given: variable domains and light chain, not shown: another chain or arm of the molecule; small tags and cut ends)
# constant: B1 constant with Y138S, M197Q, S316L
# B32: feline IgG1a Fc mutant Q311M, S428L (antibody, part only; not given: Variable domains, not shown: another chain or arm of the molecule; small tags and cut ends)
# constant: B1 constant with Y138S, S316L, R322S
# B33: feline IgG1a Fc mutant S428Y, S434H (antibody, part only; not given: Variable domains, not shown: another chain or arm of the molecule; small tags and cut ends)
# constant: B1 constant with Y138S, M197Q, S316Y, R322H
# B34: feline IgG1a Fc mutant S428L, S252W (antibody, part only; not given: Variable domains, not shown: another chain or arm of the molecule; small tags and cut ends)
# constant: B1 constant with Y138W, M197Q, S316L, R322S
# B35: feline IgG1a Fc mutant S428Y, S252Y (antibody, part only; not given: Variable domains, not shown: another chain or arm of the molecule; small tags and cut ends)
# constant: B1 constant with M197Q, S316Y, R322S
# B36: feline IgG1a Fc mutant Q311W, S428L (antibody, part only; not given: Variable domains, not shown: another chain or arm of the molecule; small tags and cut ends)
# constant: B1 constant with Y138S, M197W, S316L, R322S
# B37: feline IgG1a Fc mutant Q311M, S428M (antibody, part only; not given: Variable domains, not shown: another chain or arm of the molecule; small tags and cut ends)
# constant: B1 constant with Y138S, S316M, R322S
# B38: feline IgG1a Fc mutant Q311W, S428Y (antibody, part only; not given: Variable domains, not shown: another chain or arm of the molecule)
# constant: B1 constant with Y138S, M197W, S316Y, R322S
# B39: feline IgG1a Fc mutant Q311Y, S428L (antibody, part only; not given: Variable domains, not shown: another chain or arm of the molecule; small tags and cut ends)
# constant: B1 constant with Y138S, M197Y, S316L, R322S
# B40: feline IgG1a Fc mutant S428M, S434R (antibody, part only; not given: variable domains, not shown: another chain or arm of the molecule; small tags and cut ends)
# constant: B1 constant with Y138S, M197Q, S316M
# B41: feline IgG1a Fc mutant S428M, S252H (antibody, part only; not given: Variable domains, not shown: another chain or arm of the molecule; small tags and cut ends)
# constant: B1 constant with Y138H, M197Q, S316M, R322S
# B42: feline IgG1a Fc mutant S428Y, S252F (antibody, part only; not given: Variable domains, not shown: another chain or arm of the molecule)
# constant: B1 constant with Y138F, M197Q, S316Y, R322S
# B43: feline IgG1a Fc mutant Q311H, S428Y (antibody, part only; not given: Variable domains, not shown: another chain or arm of the molecule)
# constant: B1 constant with Y138S, M197H, S316Y, R322S
# B44: feline IgG1a Fc mutant S428M, S252F (antibody, part only; not given: Variable domains, not shown: another chain or arm of the molecule; small tags and cut ends)
# constant: B1 constant with Y138F, M197Q, S316M, R322S
# B45: feline IgG1a Fc mutant Q311K, S428L (antibody, part only; not given: variable domains and light chain, not shown: another chain or arm of the molecule; small tags and cut ends)
# constant: B1 constant with Y138S, M197K, S316L, R322S
# B46: feline IgG1a Fc mutant Q311L, S428Y (antibody, part only; not given: Variable domains, not shown: another chain or arm of the molecule)
# constant: B1 constant with Y138S, M197L, S316Y, R322S
# B47: feline IgG1a Fc mutant Q311R, S428M (antibody, part only; not given: variable domains and light chain, not shown: another chain or arm of the molecule; small tags and cut ends)
# constant: B1 constant with Y138S, M197R, S316M, R322S
# B48: feline IgG1a Fc mutant Q311Y, S428M (antibody, part only; not given: Variable domains, not shown: another chain or arm of the molecule; small tags and cut ends)
# constant: B1 constant with Y138S, M197Y, S316M, R322S
# B49: feline IgG1a Fc mutant Q311L, S428L (antibody, part only; not given: Variable domains, not shown: another chain or arm of the molecule; small tags and cut ends)
# constant: B1 constant with Y138S, M197L, S316L, R322S
# B50: feline IgG1a Fc mutant S428L, S252H (antibody, part only; not given: variable domains and light chain, not shown: another chain or arm of the molecule; small tags and cut ends)
# constant: B1 constant with Y138H, M197Q, S316L, R322S
# B51: feline IgG1a Fc mutant S428M, S434H (antibody, part only; not given: Variable domains, not shown: another chain or arm of the molecule; small tags and cut ends)
# constant: B1 constant with Y138S, M197Q, S316M, R322H
# Target: feline FcRn complex (FcRn-α subunit and β-microglobulin) (feline)
# Experiment: SPR (Biacore), FcRn on SA chip, pH 6
row,Kd [nM],Binder
1,0.443,B1
2,0.365,B2
3,0.551,B3
4,0.859,B4
5,1.55,B5
6,0.715,B6
7,0.394,B7

# Target: feline FcRn complex (FcRn-α subunit and β-microglobulin) (feline)
# Experiment: SPR (Biacore), FcRn on SA chip, pH 7.4
row,Kd [nM],Binder
1,21.9,B1
2,12.9,B2
3,34.1,B3
4,25.8,B4
5,25.6,B5
6,30.3,B6
7,24.6,B7

# Target: Feline FcRn complex (FcRn-alpha subunit and beta-microglobulin) (feline)
# Experiment: SPR (Biacore), feline FcRn captured on SA chip, IgG flowed over, pH 7.4
row,Kd [nM],Binder
1,43.9,B8
2,38.2,B9
3,22.2,B10
4,124,B11
5,25.3,B12
6,25.2,B13
7,41.8,B14
8,46.4,B15

# Target: Feline FcRn complex (FcRn-alpha subunit and beta-microglobulin) (feline)
# Experiment: SPR (Biacore), feline FcRn captured on SA chip, IgG flowed over, pH 6
row,Kd [nM],Binder
1,3.85,B16
2,6.41,B17
3,6.51,B18
4,5.72,B19
5,7.19,B20
6,4.81,B21
7,4.65,B22
8,2.58,B8
9,6.16,B23
10,5.57,B24
11,6.58,B25
12,5.7,B26
13,2.95,B27
14,1.21,B9
15,5.47,B28
16,6.52,B29
17,0.933,B10
18,5.12,B11
19,4.88,B30
20,0.937,B12
21,4.66,B31
22,6.44,B32

row,Kd [nM],Binder
1,2.27,B33
2,6.14,B34
3,8.58,B35
4,0.888,B13
5,1.02,B14
6,8.08,B36
7,1.39,B15
8,5.66,B37
9,6.35,B38
10,5.72,B39
11,5.46,B40
12,6.83,B41
13,6.62,B42
14,6.92,B43
15,5.9,B44
16,5.62,B45
17,4.74,B46
18,5.28,B47
19,5.73,B48
20,6.03,B49
21,5.94,B50
22,3.09,B51
